According to the Immune Epitope Database (IEDB):

Columns and labels:
[1] = biological target: HLA-A*26:02; assay: IEDB peptide-MHC binding, purified MHC/competitive/fluorescence; filed as Kd, often an IC50 or EC50 that approximates it; ≥ and ≤ were set here for values at or beyond the usual limits of such assays; conditions: source organism: Bacillus anthracis str. A0488
[2] = biological target: HLA-B*39:01; assay: as above; conditions: source organism: Bacillus anthracis str. A0488
[3] = biological target: HLA-B*15:09; assay: as above; conditions: source organism: Bacillus anthracis str. A0488
[4] = biological target: HLA-B*15:17; assay: IEDB peptide-MHC binding, purified MHC/direct/fluorescence; filed as Kd, often an IC50 or EC50 that approximates it; ≥ and ≤ were set here for values at or beyond the usual limits of such assays; conditions: source organism: Bacillus anthracis
[5] = biological target: HLA-A*02:01; assay: as above; conditions: source organism: Bacillus anthracis
[6] = biological target: HLA-B*07:02; assay: as above; conditions: source organism: Bacillus anthracis
[7] = biological target: HLA-B*48:01; assay: as above; conditions: source organism: Bacillus anthracis
[8] = biological target: HLA-A*31:01; assay: as above; conditions: source organism: Bacillus anthracis
[9] = biological target: HLA-B*08:03; assay: as above; conditions: source organism: Bacillus cereus 03BB108
[10] = biological target: HLA-A*03:01; assay: as above; conditions: source organism: Bacillus anthracis
[11] = biological target: HLA-A*11:01; assay: as above; conditions: source organism: Bacillus anthracis
[12] = biological target: HLA-A*68:02; assay: as above; conditions: source organism: Bacillus anthracis
[13] = biological target: HLA-B*46:01; assay: as above; conditions: source organism: Bacillus anthracis
[14] = biological target: HLA-A*26:01; assay: as above; conditions: source organism: Bacillus cereus 03BB108
[15] = biological target: HLA-B*57:01; assay: as above; conditions: source organism: Bacillus anthracis
[16] = biological target: HLA-B*58:01; assay: as above; conditions: source organism: Bacillus anthracis
[17] = biological target: HLA-B*35:01; assay: as above; conditions: source organism: Bacillus cereus 03BB108
[18] = biological target: HLA-B*27:05; assay: as above; conditions: source organism: Bacillus anthracis
[19] = biological target: HLA-A*01:01; assay: as above; conditions: source organism: Bacillus anthracis
[20] = biological target: HLA-B*15:02; assay: as above; conditions: source organism: Bacillus cereus 03BB108
[21] = biological target: HLA-A*69:01; assay: as above; conditions: source organism: Bacillus anthracis
[22] = biological target: HLA-B*15:01; assay: as above; conditions: source organism: Bacillus anthracis

SQMPPQKIM
Kd [1]: ≥ 20 µM | Kd [2]: 3 µM | Kd [3]: 0.283 µM | Kd [4]: ≥ 20 µM | Kd [5]: ≥ 20 µM | Kd [6]: ≥ 20 µM | Kd [7]: 3.67 µM | Kd [8]: ≥ 20 µM | Kd [9]: ≥ 20 µM | Kd [10]: ≥ 20 µM | Kd [11]: ≥ 20 µM | Kd [12]: ≥ 20 µM | Kd [13]: ≥ 20 µM | Kd [14]: ≥ 20 µM | Kd [15]: ≥ 20 µM | Kd [16]: ≥ 20 µM | Kd [17]: 0.661 µM | Kd [18]: ≥ 20 µM | Kd [19]: ≥ 20 µM | Kd [20]: 0.022 µM | Kd [21]: ≥ 20 µM | Kd [22]: 0.125 µM
